# T1: human-NKP30-His (human, UniProt O14931 19-138)
# T1 construct: Bought protein; also called NKP30 protein; NKP30-his protein; not shown: His tag
# T1 sequence (looked up): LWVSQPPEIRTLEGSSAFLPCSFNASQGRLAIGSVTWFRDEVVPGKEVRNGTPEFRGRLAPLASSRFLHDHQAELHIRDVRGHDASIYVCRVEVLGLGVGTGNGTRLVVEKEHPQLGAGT
# Biological target: T1, human-NKP30-His
# Assay: ELISA, human-NKP30-His coated
# Procedure: The human-NKP30-His (purchased from ACRO Biosystems) was diluted to 0.5 μg/mL using pH 7.4 PBS buffer and 100 μL per well was added to a 96-well ELISA plate and coated overnight at 4° C. The plates were closed with 1% BSA blocking solution for 1 hour and washed 3 times with PBST. […] The plate was washed 3 times with PBST and HRP-labelled goat anti-human IgG Fc was diluted 1:20000 with sample diluent, 100 μL for each well was added and incubated for 1 h at room temperature. After washing the plate 4 times with PBST, 100 μL of TMB substrate was added into each well and incubated for 10 min at room temperature, avoiding light. Then 100 μL of 1 M HCl was added into each well to terminate the colour development reaction. The absorbance value of each well in the 96-well plate was measured on a multifunctional enzyme standard at a wavelength of 450 nm and a reference wavelength of 570 nm, absorbance value (OD) per well=OD_{450 nm}−OD_{570 nm}. The concentration of the constructed antibody was logarithmically used as the horizontal coordinate, the measured absorbance value per well as the vertical coordinate, and the Sigmoidal dose-response (Variable Slope) method (Graph Pad Prism Software, Graph Pad Software, San Diego, California) was selected for non-linear regression to obtain the binding curve between the target antibody and NKP30 protein.
row,binding result,Binder
1,binds,"constructed antibody B23 (bispecific antibody, human IgG4 S228P, kappa, IgG4 subtype) heavy: not shown light: DIVMTQSPATLSVTPGDRVSLSCRASQSISDYLHWYQQKSHESPRLLIKYASQSISGIPSRFSGSGSGSDFTLSINSVEPEDVGVYYCQNGHSFPLTFGAGTKLELKRTVAAPSVFIFPPSDEQLKSGTASVVCLLNNFYPREAKVQWKVDNALQSGNSQESVTEQDSKDSTYSLSSTLTLSKADYEKHKVYACEVTHQGLSSPVTKSFNRGEC"
2,binds,"constructed antibody A25 (bispecific antibody, human IgG1, kappa, IgG1 subtype) heavy: not shown light: DIVMTQSPATLSVTPGDRVSLSCRASQSISDYLHWYQQKSHESPRLLIKYASQSISGIPSRFSGSGSGSDFTLSINSVEPEDVGVYYCQNGHSFPLTFGAGTKLELKRTVAAPSVFIFPPSDEQLKSGTASVVCLLNNFYPREAKVQWKVDNALQSGNSQESVTEQDSKDSTYSLSSTLTLSKADYEKHKVYACEVTHQGLSSPVTKSFNRGEC"
3,binds,"constructed antibody D28 (bispecific antibody, human IgG4 S228P, kappa, IgG4 subtype) heavy: not shown light: DIVMTQSPATLSVTPGDRVSLSCRASQSISDYLHWYQQKSHESPRLLIKYASQSISGIPSRFSGSGSGSDFTLSINSVEPEDVGVYYCQNGHSFPLTFGAGTKLELKRTVAAPSVFIFPPSDEQLKSGTASVVCLLNNFYPREAKVQWKVDNALQSGNSQESVTEQDSKDSTYSLSSTLTLSKADYEKHKVYACEVTHQGLSSPVTKSFNRGEC"
4,binds,"constructed antibody A24 (bispecific antibody, human IgG1, kappa, IgG1 subtype) heavy: not shown light: DIVMTQSPATLSVTPGDRVSLSCRASQSISDYLHWYQQKSHESPRLLIKYASQSISGIPSRFSGSGSGSDFTLSINSVEPEDVGVYYCQNGHSFPLTFGAGTKLELKRTVAAPSVFIFPPSDEQLKSGTASVVCLLNNFYPREAKVQWKVDNALQSGNSQESVTEQDSKDSTYSLSSTLTLSKADYEKHKVYACEVTHQGLSSPVTKSFNRGEC"

# — patent US20250092140A1 (SHENGHE CHINA BIOPHARMACEUTICAL, published 2025)
